Source: patent US20240317826

Columns and labels:
[1] = target: INI1 of 293 T producer cells (endogenous), Q12824

Row | Protein | INI1 incorporation into HIV-1 virions (Western analysis of concentrated virions) (SP38 stapled peptide) | INI1 incorporation into HIV-1 virions (Western blot of concentrated virions) [1]
1 | HIV-1NL4-3 integrase (IN), wild type, in virus / GagPol (protein) FLDGIDKAQEEHEKYHSNWRAMASDFNLPPVVAKEIVASCDKCQLKGEAMHGQVDCSPGIWQLDCTHLEGKVILVAVHVASGYIEAEVIPAETGQETAYFLLKLAGRWPVKTVHTDNGSNFTSTTVKAACWWAGIKQEFGIPYNPQSQGVIESMNKELKKIIGQVRDQAEHLKTAVQMAVFIHNFKRKGGIGGYSAGERIVDIIATDIQTKELQKQITKIQNFRVYYRDSRDPVWKGPAKLLWKGEGAVVIQDNSDIKVVPRRKAKIIRDYGKQMAGDDCVASRQDED | INI1 was not incorporated into HIV-1 virions produced in the presence of SP38 | wild type virus (FIG. 18c lane 2) ... incorporated INI1
2 | HIV-1NL4-3 integrase W235E, in virus (protein) FLDGIDKAQEEHEKYHSNWRAMASDFNLPPVVAKEIVASCDKCQLKGEAMHGQVDCSPGIWQLDCTHLEGKVILVAVHVASGYIEAEVIPAETGQETAYFLLKLAGRWPVKTVHTDNGSNFTSTTVKAACWWAGIKQEFGIPYNPQSQGVIESMNKELKKIIGQVRDQAEHLKTAVQMAVFIHNFKRKGGIGGYSAGERIVDIIATDIQTKELQKQITKIQNFRVYYRDSRDPVEKGPAKLLWKGEGAVVIQDNSDIKVVPRRKAKIIRDYGKQMAGDDCVASRQDED | – | but not the W235E and R228A mutant virions incorporated INI1
3 | HIV-1NL4-3 integrase R228A, in virus (protein) FLDGIDKAQEEHEKYHSNWRAMASDFNLPPVVAKEIVASCDKCQLKGEAMHGQVDCSPGIWQLDCTHLEGKVILVAVHVASGYIEAEVIPAETGQETAYFLLKLAGRWPVKTVHTDNGSNFTSTTVKAACWWAGIKQEFGIPYNPQSQGVIESMNKELKKIIGQVRDQAEHLKTAVQMAVFIHNFKRKGGIGGYSAGERIVDIIATDIQTKELQKQITKIQNFRVYYADSRDPVWKGPAKLLWKGEGAVVIQDNSDIKVVPRRKAKIIRDYGKQMAGDDCVASRQDED | – | but not the W235E and R228A mutant virions incorporated INI1
